Data set [1] deals with the molecule itself. The experiment in a line: crystal structure; deglycosylated β3 Ig domain; sitting drop, 1 M sodium citrate tribasic, 0.1 M CHES/sodium hydroxide pH 9.5, 19 °C; space group P3(1)21, three molecules in the asymmetric unit; 2.5 Å.
Data set [2] has as its target T1, Human Nav 1.5 α subunit with a carboxyl-terminal hemagglutinin (HA) epitope tag (human, UniProt Q14524 1-2016).
T1 construct: Nav 1.5 sodium channel α subunit, human; ~250 kDa; Construct provided by Dr. C; source: tsA 201 cells, transfected (pcDNA3N); immunoisolated from detergent extract (anti-HA agarose, HA peptide elution); not shown: HA, C-terminal, kept
Briefly: atomic force microscopy (AFM) imaging; α subunit isolated through its HA tag from tsA 201 cells co-transfected with wild-type Myc-tagged β3; co-isolated sample on mica, imaged in air in tapping mode. The following applies: both partners purified.

Data set [3] deals with the molecule itself. The experiment in a line: fluorescence photoactivated localization microscopy (FPALM) with pair correlation analysis; mEos2 fusions on the plasma membrane of fixed, transfected HEK293 cells; TIRF-PALM; 30 regions of 1 μm^2 on five cells; proteins per cluster.

The values below come from article PMC4036194, “Crystal Structure and Molecular Imaging of the Nav Channel β3 Subunit Indicates a Trimeric Assembly*” (The Journal of Biological Chemistry, 2014).

T1 sequence (Q14524 whole entry): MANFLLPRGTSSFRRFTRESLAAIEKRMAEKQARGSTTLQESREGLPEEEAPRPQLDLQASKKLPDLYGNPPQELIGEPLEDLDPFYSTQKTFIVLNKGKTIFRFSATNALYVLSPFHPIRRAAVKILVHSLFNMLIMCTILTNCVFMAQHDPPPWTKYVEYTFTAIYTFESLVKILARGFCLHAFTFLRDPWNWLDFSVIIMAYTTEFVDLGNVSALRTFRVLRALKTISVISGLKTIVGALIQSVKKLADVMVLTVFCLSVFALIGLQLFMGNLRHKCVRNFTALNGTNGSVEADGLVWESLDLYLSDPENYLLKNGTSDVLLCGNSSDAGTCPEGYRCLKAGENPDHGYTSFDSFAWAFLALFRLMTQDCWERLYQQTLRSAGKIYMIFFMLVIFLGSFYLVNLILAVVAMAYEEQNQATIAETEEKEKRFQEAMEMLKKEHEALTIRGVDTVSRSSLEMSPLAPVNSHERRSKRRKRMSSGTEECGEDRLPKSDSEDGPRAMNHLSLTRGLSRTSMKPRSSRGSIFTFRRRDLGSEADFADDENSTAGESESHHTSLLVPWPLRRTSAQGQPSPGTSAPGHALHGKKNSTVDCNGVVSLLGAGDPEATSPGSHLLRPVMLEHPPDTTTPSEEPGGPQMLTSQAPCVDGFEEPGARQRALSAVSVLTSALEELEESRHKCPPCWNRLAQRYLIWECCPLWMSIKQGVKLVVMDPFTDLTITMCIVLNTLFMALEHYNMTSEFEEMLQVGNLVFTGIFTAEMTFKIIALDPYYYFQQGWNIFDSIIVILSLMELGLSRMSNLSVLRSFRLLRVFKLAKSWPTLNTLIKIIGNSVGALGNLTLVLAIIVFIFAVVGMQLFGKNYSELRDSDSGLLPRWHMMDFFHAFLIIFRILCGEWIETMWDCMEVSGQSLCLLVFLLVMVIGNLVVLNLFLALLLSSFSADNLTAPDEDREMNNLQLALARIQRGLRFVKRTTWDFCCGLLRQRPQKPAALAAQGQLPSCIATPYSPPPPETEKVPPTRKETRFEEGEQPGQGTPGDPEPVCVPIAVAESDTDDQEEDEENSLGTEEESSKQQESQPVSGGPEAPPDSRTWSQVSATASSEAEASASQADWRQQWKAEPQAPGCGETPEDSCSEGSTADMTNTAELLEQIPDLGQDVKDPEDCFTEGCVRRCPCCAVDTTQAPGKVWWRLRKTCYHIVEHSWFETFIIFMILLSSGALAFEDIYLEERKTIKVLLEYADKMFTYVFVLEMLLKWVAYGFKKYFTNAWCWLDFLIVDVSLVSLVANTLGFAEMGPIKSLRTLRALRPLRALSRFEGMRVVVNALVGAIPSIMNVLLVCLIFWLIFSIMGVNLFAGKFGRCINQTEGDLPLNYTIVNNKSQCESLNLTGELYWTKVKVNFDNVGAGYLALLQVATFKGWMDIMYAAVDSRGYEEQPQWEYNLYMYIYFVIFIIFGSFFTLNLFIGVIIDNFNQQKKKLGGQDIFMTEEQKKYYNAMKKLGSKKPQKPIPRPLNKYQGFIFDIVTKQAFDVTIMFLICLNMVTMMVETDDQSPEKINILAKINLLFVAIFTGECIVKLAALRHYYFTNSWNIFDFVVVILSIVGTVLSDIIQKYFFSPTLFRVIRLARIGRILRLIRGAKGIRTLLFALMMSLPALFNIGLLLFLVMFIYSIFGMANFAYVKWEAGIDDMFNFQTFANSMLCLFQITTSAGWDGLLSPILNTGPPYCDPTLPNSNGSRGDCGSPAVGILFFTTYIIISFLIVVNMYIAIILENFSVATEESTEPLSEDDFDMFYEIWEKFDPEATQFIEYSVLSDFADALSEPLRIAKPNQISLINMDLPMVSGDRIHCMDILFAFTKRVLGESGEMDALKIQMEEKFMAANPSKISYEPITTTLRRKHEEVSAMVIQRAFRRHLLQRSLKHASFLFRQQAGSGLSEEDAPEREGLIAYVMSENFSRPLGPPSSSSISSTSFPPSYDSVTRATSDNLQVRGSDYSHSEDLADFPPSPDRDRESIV

B1: Nav channel β3 subunit Ig domain with carboxyl-terminal hexa-His tag (domain or fragment, human)
chain: VCVEVPSETEAVQGNPMKLRCISCMKREEVEATTVVEWFYRPEGGKDFLIYEYRNGHQEVESPFQGRLQWNGSKDLQDVSITVLNVTLNDSGLYTCNVSREFEFEAHRPFVKTTRLIPLRV
modifications: disulfide bonds Cys-2–24 and Cys-21–96
notes: Nav channel β3 subunit (SCN3B), human, extracellular Ig domain; the cDNA also encodes the amino-terminal ER targeting signal, which was efficiently removed on secretion; 127 amino acids in total, theoretical mass 14.8 kDa; numbers count on: the mature protein; Deglycosylated with peptide:N-glycosidase F for crystallisation; chemically cross-linked for AUC; Surmise: the 127 residues are the mature …
For B1, in data set [1], the stoichiometry N (as a rule, a count of units in the complex or per binding partner) is 3.

B2: Full-length human β3 subunit with a carboxyl-terminal Myc epitope tag (natural protein, UniProt Q9NY72 23-215, looked up)
chain: FPVCVEVPSETEAVQGNPMKLRCISCMKREEVEATTVVEWFYRPEGGKDFLIYEYRNGHQEVESPFQGRLQWNGSKDLQDVSITVLNVTLNDSGLYTCNVSREFEFEAHRPFVKTTRLIPLRVTEEAGEDFTSVVSEIMMYILLVFLTLWLLIEMIYCYRKVSKAEEAAQENASDYLAIPSENKENSAVPVEE
notes: Nav channel β3 subunit (SCN3B), human, full length; runs at ~40 kDa (glycosylated) and ~30 kDa (likely unglycosylated); numbers count on: the mature protein; also called Myc-tagged β3 subunit; wild-type β3; source: tsA 201 cells, transfected (pFastBacMam); immunoisolated from detergent extract (anti-Myc agarose, Myc peptide elution); in detergent extract of co-transfected cells for co-isolation …
On to B2, for which the “stoichiometry N” value in data set [2] was 4.

B3: Full-length β3 subunit tagged at the carboxyl terminus with mEos2 (natural protein, UniProt Q9NY72 23-215, looked up)
chain: FPVCVEVPSETEAVQGNPMKLRCISCMKREEVEATTVVEWFYRPEGGKDFLIYEYRNGHQEVESPFQGRLQWNGSKDLQDVSITVLNVTLNDSGLYTCNVSREFEFEAHRPFVKTTRLIPLRVTEEAGEDFTSVVSEIMMYILLVFLTLWLLIEMIYCYRKVSKAEEAAQENASDYLAIPSENKENSAVPVEE
notes: Nav channel β3 subunit (SCN3B), full length; also called β3-mEos2; β3-mEOS2; source: HEK293 cells, transiently transfected, on the plasma membrane of fixed cells; not shown: mEos2, C-terminal, kept
B3: in data set [3], the “stoichiometry N” value is 3.
